Measured values taken from PMC9521027 (ACS Omega, 2022).
Several values for one entry are separate records, joined by “and”; a condition that tells them apart may be missing. Equal values may be shown once. One block for each molecule: values may come before it.

Key:
URAT1 K393H mutant = biological target: T1, URAT1 K393H mutant (Homo sapiens, UniProt Q96S37, K393H); test: 14C-uric acid binding assay with membrane protein; conditions: 1 μM BM, 1 μM verinurad, 10 μM lesinurad, 20 μM probenecid, 30 min, 25 μM 14C-uric acid
T1 sequence (Q96S37 1-553 K393H): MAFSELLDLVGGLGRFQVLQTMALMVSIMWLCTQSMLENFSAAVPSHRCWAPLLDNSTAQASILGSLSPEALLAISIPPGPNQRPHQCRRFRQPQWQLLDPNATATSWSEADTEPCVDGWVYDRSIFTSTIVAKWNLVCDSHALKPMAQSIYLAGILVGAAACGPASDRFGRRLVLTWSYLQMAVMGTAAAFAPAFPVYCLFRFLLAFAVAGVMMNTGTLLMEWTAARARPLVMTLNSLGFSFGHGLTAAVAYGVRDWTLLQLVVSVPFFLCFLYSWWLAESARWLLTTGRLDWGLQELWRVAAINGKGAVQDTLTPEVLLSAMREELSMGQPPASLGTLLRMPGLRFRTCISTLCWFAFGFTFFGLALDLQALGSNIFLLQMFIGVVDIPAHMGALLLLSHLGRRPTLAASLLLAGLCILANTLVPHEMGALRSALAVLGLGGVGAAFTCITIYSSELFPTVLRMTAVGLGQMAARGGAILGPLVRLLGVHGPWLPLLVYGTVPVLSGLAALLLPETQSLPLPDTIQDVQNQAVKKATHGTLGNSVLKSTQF

URAT1 K393R mutant = biological target: T2, URAT1 K393R mutant (Homo sapiens, UniProt Q96S37, K393R); test: 14C-uric acid binding assay with membrane protein; conditions: 1 μM BM, 1 μM verinurad, 10 μM lesinurad, 20 μM probenecid, 30 min, 25 μM 14C-uric acid
T2 sequence (Q96S37 1-553 K393R): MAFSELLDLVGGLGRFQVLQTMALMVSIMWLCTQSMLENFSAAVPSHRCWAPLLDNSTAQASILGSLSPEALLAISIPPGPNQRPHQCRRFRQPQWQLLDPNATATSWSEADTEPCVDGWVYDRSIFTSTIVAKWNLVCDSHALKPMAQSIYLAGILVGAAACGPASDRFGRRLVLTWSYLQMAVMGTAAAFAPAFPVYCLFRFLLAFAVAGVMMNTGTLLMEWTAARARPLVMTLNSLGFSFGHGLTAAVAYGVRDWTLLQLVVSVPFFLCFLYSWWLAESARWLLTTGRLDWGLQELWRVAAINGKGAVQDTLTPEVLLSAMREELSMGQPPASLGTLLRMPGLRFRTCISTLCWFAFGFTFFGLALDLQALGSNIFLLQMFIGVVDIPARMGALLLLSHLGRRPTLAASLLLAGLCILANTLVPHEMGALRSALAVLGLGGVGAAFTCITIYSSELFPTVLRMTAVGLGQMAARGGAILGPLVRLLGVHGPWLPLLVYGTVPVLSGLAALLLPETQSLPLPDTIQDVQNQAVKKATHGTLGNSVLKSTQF

[1] = substrate: O=c1[nH]c(=O)c2[nH]c(=O)[nH]c2[nH]1; test: Saturation kinetic experiment of 14C-uric acid uptake; type: cell-based, human; conditions: 10–200 μM 14C-uric acid, 20 min, HEK293, n = 3

Effect of inhibitor on 14C-uric acid binding compared with WT group (URAT1 K393H mutant): poorly interfered
Effect of inhibitor on 14C-uric acid binding compared with WT group (URAT1 K393R mutant): poorly interfered
Molecule: CCc1oc2ccccc2c1C(=O)c1cc(Br)c(O)c(Br)c1 [BM, benzbromarone]

Effect of inhibitor on 14C-uric acid binding compared with WT group (URAT1 K393H mutant): similar
Effect of inhibitor on 14C-uric acid binding compared with WT group (URAT1 K393R mutant): similar
Molecule: O=C(O)CSc1nnc(Br)n1-c1ccc(C2CC2)c2ccccc12 [lesinurad]

Effect of inhibitor on 14C-uric acid binding compared with WT group (URAT1 K393H mutant): similar
Effect of inhibitor on 14C-uric acid binding compared with WT group (URAT1 K393R mutant): similar
Molecule: CCCN(CCC)S(=O)(=O)c1ccc(C(=O)O)cc1 [probenecid]

B1: hURAT1 K393R mutant (Homo sapiens; K393R) (protein)
chain: MAFSELLDLVGGLGRFQVLQTMALMVSIMWLCTQSMLENFSAAVPSHRCWAPLLDNSTAQASILGSLSPEALLAISIPPGPNQRPHQCRRFRQPQWQLLDPNATATSWSEADTEPCVDGWVYDRSIFTSTIVAKWNLVCDSHALKPMAQSIYLAGILVGAAACGPASDRFGRRLVLTWSYLQMAVMGTAAAFAPAFPVYCLFRFLLAFAVAGVMMNTGTLLMEWTAARARPLVMTLNSLGFSFGHGLTAAVAYGVRDWTLLQLVVSVPFFLCFLYSWWLAESARWLLTTGRLDWGLQELWRVAAINGKGAVQDTLTPEVLLSAMREELSMGQPPASLGTLLRMPGLRFRTCISTLCWFAFGFTFFGLALDLQALGSNIFLLQMFIGVVDIPARMGALLLLSHLGRRPTLAASLLLAGLCILANTLVPHEMGALRSALAVLGLGGVGAAFTCITIYSSELFPTVLRMTAVGLGQMAARGGAILGPLVRLLGVHGPWLPLLVYGTVPVLSGLAALLLPETQSLPLPDTIQDVQNQAVKKATHGTLGNSVLKSTQF
Km ([1]; other: K393R): 128.11 μM and 101.23 ± 26.11 (ns) μM
Vmax ([1]; other: K393R): 557.21 ± 89.21(ns)

B2: hURAT1 WT (Homo sapiens) (protein)
chain: MAFSELLDLVGGLGRFQVLQTMALMVSIMWLCTQSMLENFSAAVPSHRCWAPLLDNSTAQASILGSLSPEALLAISIPPGPNQRPHQCRRFRQPQWQLLDPNATATSWSEADTEPCVDGWVYDRSIFTSTIVAKWNLVCDSHALKPMAQSIYLAGILVGAAACGPASDRFGRRLVLTWSYLQMAVMGTAAAFAPAFPVYCLFRFLLAFAVAGVMMNTGTLLMEWTAARARPLVMTLNSLGFSFGHGLTAAVAYGVRDWTLLQLVVSVPFFLCFLYSWWLAESARWLLTTGRLDWGLQELWRVAAINGKGAVQDTLTPEVLLSAMREELSMGQPPASLGTLLRMPGLRFRTCISTLCWFAFGFTFFGLALDLQALGSNIFLLQMFIGVVDIPAKMGALLLLSHLGRRPTLAASLLLAGLCILANTLVPHEMGALRSALAVLGLGGVGAAFTCITIYSSELFPTVLRMTAVGLGQMAARGGAILGPLVRLLGVHGPWLPLLVYGTVPVLSGLAALLLPETQSLPLPDTIQDVQNQAVKKATHGTLGNSVLKSTQF
Km ([1]; other: WT): 106.45 ± 16.45 µM
Vmax ([1]; other: WT): 0.000654 µmol/min/mg

B3: hURAT1 K393D mutant (Homo sapiens; K393D) (protein)
chain: MAFSELLDLVGGLGRFQVLQTMALMVSIMWLCTQSMLENFSAAVPSHRCWAPLLDNSTAQASILGSLSPEALLAISIPPGPNQRPHQCRRFRQPQWQLLDPNATATSWSEADTEPCVDGWVYDRSIFTSTIVAKWNLVCDSHALKPMAQSIYLAGILVGAAACGPASDRFGRRLVLTWSYLQMAVMGTAAAFAPAFPVYCLFRFLLAFAVAGVMMNTGTLLMEWTAARARPLVMTLNSLGFSFGHGLTAAVAYGVRDWTLLQLVVSVPFFLCFLYSWWLAESARWLLTTGRLDWGLQELWRVAAINGKGAVQDTLTPEVLLSAMREELSMGQPPASLGTLLRMPGLRFRTCISTLCWFAFGFTFFGLALDLQALGSNIFLLQMFIGVVDIPADMGALLLLSHLGRRPTLAASLLLAGLCILANTLVPHEMGALRSALAVLGLGGVGAAFTCITIYSSELFPTVLRMTAVGLGQMAARGGAILGPLVRLLGVHGPWLPLLVYGTVPVLSGLAALLLPETQSLPLPDTIQDVQNQAVKKATHGTLGNSVLKSTQF
Km ([1]; other: K393D): 165.36 ± 23.41 µM
Vmax ([1]; other: K393D): 0.000497 µmol/min/mg

B4: hURAT1 K393H mutant (Homo sapiens; K393H) (protein)
chain: MAFSELLDLVGGLGRFQVLQTMALMVSIMWLCTQSMLENFSAAVPSHRCWAPLLDNSTAQASILGSLSPEALLAISIPPGPNQRPHQCRRFRQPQWQLLDPNATATSWSEADTEPCVDGWVYDRSIFTSTIVAKWNLVCDSHALKPMAQSIYLAGILVGAAACGPASDRFGRRLVLTWSYLQMAVMGTAAAFAPAFPVYCLFRFLLAFAVAGVMMNTGTLLMEWTAARARPLVMTLNSLGFSFGHGLTAAVAYGVRDWTLLQLVVSVPFFLCFLYSWWLAESARWLLTTGRLDWGLQELWRVAAINGKGAVQDTLTPEVLLSAMREELSMGQPPASLGTLLRMPGLRFRTCISTLCWFAFGFTFFGLALDLQALGSNIFLLQMFIGVVDIPAHMGALLLLSHLGRRPTLAASLLLAGLCILANTLVPHEMGALRSALAVLGLGGVGAAFTCITIYSSELFPTVLRMTAVGLGQMAARGGAILGPLVRLLGVHGPWLPLLVYGTVPVLSGLAALLLPETQSLPLPDTIQDVQNQAVKKATHGTLGNSVLKSTQF
Km ([1]; other: K393H): 101.23 μM and 128.11 ± 19.12 (ns) μM
Vmax ([1]; other: K393H): 0.000447 µmol/min/mg

B5: hURAT1 K393A mutant (Homo sapiens; K393A) (protein)
chain: MAFSELLDLVGGLGRFQVLQTMALMVSIMWLCTQSMLENFSAAVPSHRCWAPLLDNSTAQASILGSLSPEALLAISIPPGPNQRPHQCRRFRQPQWQLLDPNATATSWSEADTEPCVDGWVYDRSIFTSTIVAKWNLVCDSHALKPMAQSIYLAGILVGAAACGPASDRFGRRLVLTWSYLQMAVMGTAAAFAPAFPVYCLFRFLLAFAVAGVMMNTGTLLMEWTAARARPLVMTLNSLGFSFGHGLTAAVAYGVRDWTLLQLVVSVPFFLCFLYSWWLAESARWLLTTGRLDWGLQELWRVAAINGKGAVQDTLTPEVLLSAMREELSMGQPPASLGTLLRMPGLRFRTCISTLCWFAFGFTFFGLALDLQALGSNIFLLQMFIGVVDIPAAMGALLLLSHLGRRPTLAASLLLAGLCILANTLVPHEMGALRSALAVLGLGGVGAAFTCITIYSSELFPTVLRMTAVGLGQMAARGGAILGPLVRLLGVHGPWLPLLVYGTVPVLSGLAALLLPETQSLPLPDTIQDVQNQAVKKATHGTLGNSVLKSTQF
Km ([1]; other: K393A): 172.12 ± 27.12 µM
Vmax ([1]; other: K393A): 0.000464 µmol/min/mg

B6: hURAT1 K393E mutant (Homo sapiens; K393E) (protein)
chain: MAFSELLDLVGGLGRFQVLQTMALMVSIMWLCTQSMLENFSAAVPSHRCWAPLLDNSTAQASILGSLSPEALLAISIPPGPNQRPHQCRRFRQPQWQLLDPNATATSWSEADTEPCVDGWVYDRSIFTSTIVAKWNLVCDSHALKPMAQSIYLAGILVGAAACGPASDRFGRRLVLTWSYLQMAVMGTAAAFAPAFPVYCLFRFLLAFAVAGVMMNTGTLLMEWTAARARPLVMTLNSLGFSFGHGLTAAVAYGVRDWTLLQLVVSVPFFLCFLYSWWLAESARWLLTTGRLDWGLQELWRVAAINGKGAVQDTLTPEVLLSAMREELSMGQPPASLGTLLRMPGLRFRTCISTLCWFAFGFTFFGLALDLQALGSNIFLLQMFIGVVDIPAEMGALLLLSHLGRRPTLAASLLLAGLCILANTLVPHEMGALRSALAVLGLGGVGAAFTCITIYSSELFPTVLRMTAVGLGQMAARGGAILGPLVRLLGVHGPWLPLLVYGTVPVLSGLAALLLPETQSLPLPDTIQDVQNQAVKKATHGTLGNSVLKSTQF
Km ([1]; other: K393E): 201.23 ± 23.65 µM
Vmax ([1]; other: K393E): 0.000424 µmol/min/mg
